The target in this test is T1, biotinylated histone H3K14ac(1–20) peptide (acetyl-lysine at K14; biotin on the added C-terminal lysine; C-terminal amide (CONH2)).
T1 construct: histone H3, residues 1-20; added C-terminal lysine that carries the biotin; also called H3K14ac peptide; Kac peptide; source: synthetic peptide, bought: Peptide 2.0
The test can be described thus: AlphaScreen or HTRF; full titration: His6-PBRM1-BD4 protein 0.001–2 μM against 50 nM biotinylated H3K14ac(1–20) peptide; streptavidin donor and nickel-chelate acceptor beads; 1× AlphaLISA Epigenetics buffer, 0.05% Tween 20, 2 μM TCEP; room temperature; n = 3. Particulars: both partners purified. (Bead proximity is the source of the signal in Alpha formats.)

Numbering of substitutions follows the chain as printed.

B1: PBRM1-BD4 M586I (domain or fragment, human, UniProt Q86U86-5 496-637, looked up)
chain: GDSMISSATSDTGSAKRKSKKNIRKQRMKILFNVVLEAREPGSGRRLCDLFMVKPSKKDYPDYYKIILEPMDLKIIEHNIRNDKYAGEEGIIEDMKLMFRNARHYNEEGSQVYNDAHILEKLLKEKRKELGPLPDDDDMASP
notes: polybromo-1 (PBRM1), fourth bromodomain (BD4) construct, aa 496-637, cancer-associated missense variant; source: E. coli BL21(DE3), purified (Ni-NTA, gel filtration)
For orientation: EC50 means the concentration at which the effect is half-maximal. A low value points to a more potent agent. In turn, B1 registered a 50% effective concentration (EC50) of 0.49 ± 0.13 µM.

B2: PBRM1-BD4 P556S (domain or fragment, human, UniProt Q86U86-5 496-637, looked up)
chain: B1 chain with P61S, I91M
notes: as for B1
Consider B2, for which the midpoint of the response, the EC50, lay at 1 ± 0.09 µM and the “fold reduction of affinity against WT” value lay within 2 to 15 fold.

B3: PBRM1-BD4 R576L (domain or fragment, human, UniProt Q86U86-5 496-637, looked up)
chain: B1 chain with R81L, I91M
notes: as for B1
Take B3: it took 0.21 ± 0.02 µM to reach a half-maximal effect (EC50) and the “fold reduction of affinity against WT” value fell in the range of 2 to 15 fold.

For the origin of these results see paper PMC11002309, “Cancer-associated polybromo-1 bromodomain 4 missense variants variably impact bromodomain ligand binding and cell growth suppression” (The Journal of Biological Chemistry, 2024).
